B1: AF0933 (Archaeoglobus fulgidus DSM 4304) (protein)
chain: MLYVYMDGEFVPENEAKVSIFDHGFLYGDGVFEGIRAYNGRVFRLKEHIDRLYDSAKAIDLEIPITKEEFMEIILETLRKNNLRDAYIRPIVTRGIGDLGLDPRKCQNPSIIVITKPWGKLYGDLYEKGLTAITVAVRRNSFDALPPNIKSLNYLNNILAKIEANAKGGDEAIFLDRNGYVSEGSGDNIFVVKNGAITTPPTINNLRGITREAVIEIINRLGIPFKETNIGLYDLYTADEVFVTGTAAEIAPIVVIDGRKIGDGKPGEITRKLMEEFSKLTESEGVPIYE
B2: GEO1900 (Geoglobus acetivorans) (protein)
chain: MSELLVYMNGEFVPESQAKVSVFDHGFLYGDGVFEGIRAYNGKVFKLYEHIDRLYDCARVIDLKIPLSKEEFAEAILETLRRNNLRDAYIRPIVTRGAGDLGLDPRKCPSPNVIIITKPWGKLYGDLYEKGLKAITVAIRRNAIDSLPPNIKSLNYLNNILAKIEANAKGGDEAIFLDHNGYISEGSGDNIFIVKNGTITTPPTLNNLKGITRQVVIELINELEIPFREANIGLFDLYSADEIFVTGTAAEIAPVTYIDGRTVGNGKPGKVTKMLMEKFRERTENEGVEIYR
notes: mainly homodimer in solution, hexamer in crystal; catalytic Lys152

How the values were obtained:
purified protein [1] = substrate: CC(C)CC(=O)C(=O)O; test: purified protein; settings: 10 mM L-glutamate, 0.1 M Tris-HCl pH 8, 0.1 mM PLP, 70°C
purified protein [2] = substrate: CC[C@H](C)C(=O)C(=O)O; test: purified protein; settings: 10 mM L-glutamate, 0.1 M Tris-HCl pH 8, 0.1 mM PLP, 70°C
purified protein [3] = substrate: CC(C)C(=O)C(=O)O; test: purified protein; settings: 10 mM L-glutamate, 0.1 M Tris-HCl pH 8, 0.1 mM PLP, 70°C
[4] = substrate: O=C(O)CCC(=O)C(=O)O; test: steady-state kinetics, GluDH-coupled discontinuous assay; format: biochemical, Geoglobus acetivorans; settings: 5 mM L-Leu co-substrate, 50 mM phosphate pH 8.0, 100 mM NaCl, 60 μM PLP, 65°C
Source text: steady-state kinetics, GluDH-coupled discontinuous assay on GEO1900 | For GEO1900 the extrapolated Vmax and Km values for pyruvate and AKG were […]

[5] = substrate: CC(=O)C(=O)O; test: steady-state kinetics of overall transamination, Michaelis-Menten fit; format: biochemical, Geoglobus acetivorans; settings: 5 mM L-Leu co-substrate; extrapolated
Source text: steady-state kinetics of overall transamination, Michaelis-Menten fit on GEO1900 | For GEO1900 the extrapolated Vmax and Km values for pyruvate and AKG were […]

Row | Protein | Km (purified protein [1]) [mM] | Vmax (purified protein [1]) [µmol/min/mg] | kcat/Km (purified protein [1]) [M⁻¹ s⁻¹] | Km (purified protein [2]) [mM] | Vmax (purified protein [2]) [µmol/min/mg] | kcat/Km (purified protein [2]) [M⁻¹ s⁻¹] | Km (purified protein [3]) [mM] | Vmax (purified protein [3]) [µmol/min/mg] | kcat/Km (purified protein [3]) [M⁻¹ s⁻¹] | Km [4] [mM] | Km [5] [mM]
1 | B1 | 0.25 | 5.5 | 13000 | 0.13 | 3.9 | 17700 | 0.42 | 6.3 | 8850 |  | 
2 | B2 |  |  |  |  |  |  |  |  |  | 1.9 ± 0.6 | 10.6 ± 1.9
